Experimental data as given in the supplement of paper PMC10126150.
± gives the standard deviation of the averaged measurements.

What follows are sequences tested on ATP (assay: switch fluorescence ratio, 500 uM ATP over buffer (Cy3 cluster intensity, sum of 5 cycles each) (fold (ratio)); higher = stronger signal-on switching upon ATP binding; sequences stand for … in TCGTCGGCAGCGTCAGATGTGTATAAGAGACAGTTTTTTTTTTTTTTTTTTTTTTTTT…TC). Details: aptamer strand: ATP DNA aptamer (quencher-CACCTGGGGGAGTATTGCGGAGGAAGG + anchor), 100 nM annealed; ATP concentration: 500 uM.
Procedure, shortened: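 For every switch-domain sequence, the fluorescence ratio is the mean of per-cluster values, each being summed target-cycle Cy3 intensity over summed buffer-cycle Cy3 intensity. Clusters outside 100-1000 RFU were excluded. On a modified Illumina MiSeq flow-cell, the Cy3-labelled switching-strand clusters were annealed to 100 nM quencher-labelled ATP aptamer, imaged in selection buffer and then after 15 min with 500 uM ATP at 22 °C. Five such cycles were run, with NaOH stripping and re-annealing between them.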
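Further: ATP exposure 15 min at 22 °C before imaging.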

Sequence | switch fluorescence ratio
CTGAGCAAG | 2.34 ± 0.28
ATGCAAGGTC | 1.12 ± 0.049
TTCGACTTCG | 0.9903 ± 0.0063
ACTATAGGAC | 1.07 ± 0.017
GGTGGGGTGC | 1.01 ± 0.046
TTTGAAGTTG | 0.992 ± 0.029
GGTTAAATTA | 1.01 ± 0.013
GGGTGGTGTT | 1.01 ± 0.021
TGAGCTATAT | 1.42 ± 0.077
ATAAGTGCAA | 1.06 ± 0.011
TTGTGTGTAA | 0.995 ± 0.014
GGTTTGACGG | 1.01 ± 0.053
TTTAGTGTAT | 0.991 ± 0.04
TTTTCTAAAT | 1.04 ± 0.076
CTTAAAATGC | 1.66 ± 0.46
TTTTGGGGCC | 1 ± 0.032
GATAGTTCGT | 1.01 ± 0.021
ACGAGGTTGG | 1.04 ± 0.084
GCCATCATGC | 0.97 ± 0.0073
GCGTGTGGGC | 1.071 ± 0.0066
CGGTCTCCGG | 1.03 ± 0.012
AAGGGGTTAG | 0.975 ± 0.016
AAAGGAGGTT | 1 ± 0.028
GAACGCTTGG | 1.05 ± 0.023
AATTTACTGG | 1.13 ± 0.084

Sequence | switch fluorescence ratio
CATTTGGGGG | 0.977 ± 0.025
AAAGGGAGAT | 1.027 ± 0.0085
CATTATAGCG | 0.991 ± 0.023
ACCTTTTTAT | 1.02 ± 0.038
GGTGACGGGC | 0.978 ± 0.045
GTTTTGAACA | 0.983 ± 0.034
GGTGGGATGC | 1.02 ± 0.076
TAAAATATTT | 1.05 ± 0.069
GGGAGGACTT | 0.977 ± 0.029
TCCTGTGCTG | 1.09 ± 0.043
AAGTAGGGGA | 1.02 ± 0.021
TATAGCTAAT | 1.027 ± 0.0041
GGCTATTGGA | 0.971 ± 0.012
CCAGTCTGTA | 0.9492 ± 0.0057
TTTGATAAGT | 1.06 ± 0.07
GTCTAACTTA | 1.01 ± 0.033
ATTGACTTTT | 1 ± 0.025
TTACCCATGG | 0.937 ± 0.064
GGGTTGATTA | 0.9898 ± 0.0084
CGGGAAGAGC | 1.033 ± 0.0043
TACAGAGGG | 0.966 ± 0.06
AGACGCAGGG | 1.034 ± 0.0053
TTGCGTGTGG | 1.048 ± 0.0046
ATAGTGGGGC | 1.056 ± 0.0054
GAAATGACTT | 1.03 ± 0.015

Sequence | switch fluorescence ratio
TCCTAATGGG | 0.985 ± 0.025
TCGGGGTAGC | 0.974 ± 0.025
TCAGCTGGGG | 0.9799 ± 0.0058
TTGGGGCAAA | 1.06 ± 0.061
TTTTTATTCG | 0.994 ± 0.019
GATTATGAGT | 1.02 ± 0.018
TTGGTGAGGT | 0.99 ± 0.041
TCTTATGGGG | 0.994 ± 0.019
AAGTCAGTTG | 1.02 ± 0.059
TCGTATGCGT | 1.11 ± 0.25
CAGGAATGCG | 1.04 ± 0.055
AGATCTACAT | 1.01 ± 0.016
GGGGGCGGGC | 1.01 ± 0.081
AAGGGAACGG | 0.971 ± 0.022
GGTTGCATTA | 0.9923 ± 0.0019
TGAAGCTTGT | 1.004 ± 0.003
TATCGTTGTT | 1 ± 0.021
TGGTTAGATT | 0.996 ± 0.034
AGGGCGACAG | 1.01 ± 0.012
TCGGGATGGC | 1.03 ± 0.024
ATAAGGAGGG | 1 ± 0.01
ACGTCGCATT | 1.19 ± 0.035
AGGTGGGTG | 1.04 ± 0.1
TTTATGTTCG | 0.99 ± 0.02
GATTGAGCTG | 1.02 ± 0.043

Sequence | switch fluorescence ratio
TTGGGGGCAT | 1.02 ± 0.052
CGTCGAATAT | 1.016 ± 0.0016
GGGGTGTGAA | 1.03 ± 0.059
ACCGGTACTC | 1.31 ± 0.047
TAGGACTCTC | 1.01 ± 0.02
GTGAGGGATA | 0.984 ± 0.043
GGCGCTTAGA | 1 ± 0.053
TGAGCGGGGG | 0.996 ± 0.021
CCAGGTCCGC | 1.455 ± 0.0073
AATCAAGTCT | 0.999 ± 0.011
ATTACTTACA | 1.308 ± 0.0037
GGGCGAAGCG | 0.986 ± 0.035
GCTGGATCCG | 1.07 ± 0.11
TGTTTTCGT | 1.02 ± 0.011
GTCAGCATTT | 1.03 ± 0.038
TTAGGTAGCA | 1.007 ± 0.0024
AAATTAGGTC | 0.95 ± 0.11
AGCCGAAAGG | 1.024 ± 0.0025
AGTTTGCTTT | 0.995 ± 0.035
CCTTTATTTA | 0.986 ± 0.026
ATTTTCAGAT | 1.003 ± 0.0045
AGATTCGTCA | 0.988 ± 0.018
ATTTAGTCGA | 0.9519 ± 0.001
ACGTGCAATT | 1.37 ± 0.21
GGAGGAAGTA | 1.03 ± 0.044
